Measured values: PMC4972647 (Nature structural & molecular biology, 2016)

T1: GST-APPBP1 (human, UniProt Q13564 1-534)
T1 sequence: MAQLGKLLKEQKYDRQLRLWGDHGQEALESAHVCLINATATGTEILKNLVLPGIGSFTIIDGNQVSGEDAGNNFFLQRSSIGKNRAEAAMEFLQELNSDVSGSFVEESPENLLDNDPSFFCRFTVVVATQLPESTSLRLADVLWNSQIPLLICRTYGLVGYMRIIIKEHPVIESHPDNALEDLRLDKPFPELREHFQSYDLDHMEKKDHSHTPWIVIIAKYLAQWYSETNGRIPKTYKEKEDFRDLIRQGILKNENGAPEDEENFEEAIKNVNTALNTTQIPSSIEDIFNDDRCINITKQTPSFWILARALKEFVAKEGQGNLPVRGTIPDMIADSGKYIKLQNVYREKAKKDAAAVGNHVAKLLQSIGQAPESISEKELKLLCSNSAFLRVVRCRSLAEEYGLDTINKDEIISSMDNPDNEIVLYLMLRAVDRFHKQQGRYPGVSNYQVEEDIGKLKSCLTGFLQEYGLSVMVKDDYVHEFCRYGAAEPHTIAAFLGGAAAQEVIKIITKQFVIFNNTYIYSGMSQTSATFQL


What was measured:
Assay in all cases: BLI
[1] = target: N-terminal GST-tagged GlyRS (human)
[2] = target: NEDD8-conjugated Ubc12 (Ubc12(C111S)^N8-His) (human) (UniProt P61081)
GST-APPBP1 = target: T1, GST-APPBP1

Sequence of purified recombinant human NEDD8 (Q15843 1-76): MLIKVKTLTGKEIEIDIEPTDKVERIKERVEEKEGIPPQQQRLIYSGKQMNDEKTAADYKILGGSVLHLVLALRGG

| Kd [1] | Kd [2] | Molecule | further results |
| --- | --- | --- | --- |
| 488 nM |  | purified recombinant human Ubc12 (from UniProt P61081 1-183) (enzyme) |  |
|  | 39.5 nM | G526R GlyRS (enzyme) |  |

Continued, molecule first:

| Molecule | Kd [1] | Kd [2] | further results |
| --- | --- | --- | --- |
| purified recombinant human NEDD8 (from UniProt Q15843 1-76) (natural protein) | 126 nM |  |  |
| ΔInsertion1 GlyRS (F147-F224 replaced by GSGSGG) (from UniProt P41250-2 225-685) (enzyme) |  | 4.32 nM |  |
| NEDD8-conjugated Ubc12 (Ubc12(C111S)^N8-His) (from UniProt P61081;Q15843) (complex) | 4.09 nM |  |  |
| Tag-free wild type human GlyRS (enzyme) |  | 3.21 nM |  |
| Δ84-93 GlyRS (F84-L93 replaced by GGG) (from UniProt P41250-2 94-685) (enzyme) |  | 27 nM |  |
| ABD (V541-E685) of human GlyRS (domain or fragment) VREGDEQRTFFSFPAVVAPFKCSVLPLSQNQEFMPFVKELSEALTRHGVSHKVDDSSGSIGRRYARTDEIGVAFGVTIDFDTVNKTPHTATLRDRDSMRQIRAEISELPSIVQDLANGNITWADVEARYPLFEGQETGKKETIEE |  |  | binding result (GST-APPBP1): binds |
